Assay: yeast display, Sf9 membrane polyspecificity reagent, FACS + sequencing; frameworks hold sequencing errors
How it was run: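 Nanobodies came from a synthetic yeast display library in Saccharomyces cerevisiae BJ5465, induced with galactose for 36–48 hours and stained for 1 hour at 4 °C with 10% biotinylated, detergent-solubilized Sf9 membrane reagent. Cells were enriched on streptavidin microbeads and then FACS-sorted, with low and high (top ~1%) gates set on anti-HA fluorescence for expression and streptavidin fluorescence for reagent binding. Each polyreactivity label reflects the gate a clone came from. Genes were amplified by colony PCR, sequenced by MiSeq 2 × 250 and filtered by CDR length.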

Sequence: QVQLVESGGGLVQAGGSLRLSCAASGFILRKYAMGWYRQAPGKERELVAAINGRGGTYYADSVKGRFTISRDNAKNTVYLQMNSLKPEDTAVYYCAAVEWYGYYTYTIDAYDYWGQGTQVTVSS
- polyreactivity (PSR sort gate): high polyreactivity

Sequence: QVQLVESGGGLVQAGGSLRLSCAASGSIFVYYTMGWYRQAPGKESELVAAISISGTSTYYADSVKGRFTISRDNAKYTVYLQLNSLKPEDTAVYYCAADTFYGEDYWGQGTQVTVSS
- polyreactivity (PSR sort gate): low polyreactivity

Sequence: QVQLVESGGGLVQAGGSLRLSCAASGRIFVIYAMGWYRQAPGTERELVAAITARGSNTYYADSVKGRFTISRDNAKNTVYLQMNSLKPEDTAVYYCNAEARSYRYPYNYWGQGTQVTVSS
- polyreactivity (PSR sort gate): high polyreactivity

Sequence: QVQLVESGGGLVQAGGSLRLSCAASGGTFVGYAMGWYRQAPGKEREFVAAISGSGGSTYYADSVKGRFTISRDNAKNTVYLQMNSLKPEDTAVYYCAARAVSRRFDYWGQGTQVTVSS
- polyreactivity (PSR sort gate): high polyreactivity

Sequence: QLQLVESGGGLVQAGGSLRLTCAASGSTFTKYDMGWYRQAPGKERELVAAIRSGGDTNYADSVKGRFTISRDNAKYTVYLQMNSLKPEDTAVYYCNTLRNWYYQFDFNYWGQGTQVTVSS
- polyreactivity (PSR sort gate): low polyreactivity

Sequence: QVQHVESGGGLVQAGGSLRLSCAASGRTFFANAMGWYRQAPGKERELVAAITSNTGSTYYADSVKGRFTISRDNAKNTVYLQMNSLKPEDTAVYYCAARGSPRKWTFHYYYWGQGTQVTVSS
- polyreactivity (PSR sort gate): high polyreactivity

Sequence: QVQLVESGGGLVQAGGSLRLSCAASGSTFGYNAMGWYRQAPGKERELVAAISSSGGSTYYADSVKGRFTISRDNAKNTVYLQMNSLKPEDTAVYYCATEFFQYYSTKGYDYWGQGTQVTVSS
- polyreactivity (PSR sort gate): low polyreactivity

Sequence: QVQLVESGGGLVQAGGSLRLSCAASGSIIGRYTMGWYRQAPGKERELVAAISRSGGSTYYADSVKGRFTISRDNAKNTVYLQMNSLKPEDTAVYYCAARYRAKRRYYYWGQGTQVTVSS
- polyreactivity (PSR sort gate): high polyreactivity

Sequence: QVQLVESGGGLVQAGGSLRLSCAASGLNLKRYAMGCYTQAPGKERELVAAISKSGGSTYYADSVKGRFTISRDNAKNTVYLQMNSLKPEDTAVYYCAADSYNLWDDYWGQGTQVTVSS
- polyreactivity (PSR sort gate): low polyreactivity

Sequence: QVQLVESGGGLVQAGGSLRLSCAASGSIFGIYAMGWYRQAPGKERELVAAISSSGSTNYADSVKGRFTISRDNAKNTVYLQMNSLKPEDTAVYYCAAEQLSARWAYYYWGQGTQVTVSS
- polyreactivity (PSR sort gate): low polyreactivity

Sequence: QVQLVESGGGLVQAGGSLRLSCAASGRTFYYYAMGWYIPAPGKERELVARISYSGSNTYYADSVKGRFTISRDTAKNTVYLQMNSLKREVTAGYYCAAGYLVWRDSATLDYWGQGTQVTVSS
- polyreactivity (PSR sort gate): high polyreactivity

Sequence: QVQLVESGGGLVQAGGSLRLSCAASGFIFATYTMGWYRQAPGKERELVAAITWRGGSTYYADTVKGRFPISRDNAKNTVYLQMNSLKPEDTAVYYCAAQDVNSYRYVEDVYCGQGTQVTVSS
- polyreactivity (PSR sort gate): low polyreactivity

Sequence: QVQLVESGGGLVQAGGSLRLSCAASGIIIGSNAMGWYRQAPGKERELVAAISDSGGSTYYADSVKGRFTISRDNAKNTVYLQMNSLKPEDTAVYYCAAAGRGSWTTYRFDYWGQGTQVTVSS
- polyreactivity (PSR sort gate): high polyreactivity

Sequence: QVQLVESGGGLFLAGGSLRLSCAAAGSTFVTNDMGWYRQAPGKERELVAAISVGGRTSYADSVKGRFTISRDNAKNTVYLQMNSLKPEDTAVYYCAAQYRYTYWGQGTQVTVSS
- polyreactivity (PSR sort gate): low polyreactivity

Sequence: QDQLVESGGGLVQAGGSLRLSCAASGSTFGYYAMGWYRQAPRKERELVAAISWRGGSTSYADSVKGRFTISRDNAKNTVYLQMNSLKPEDTAVYYCAAPRGTLTSWAGNYWGQGTQVTVSS
- polyreactivity (PSR sort gate): high polyreactivity

Sequence: QVQLVESGGGLVQAGGSLRLSCAASGRTFARYARGWYRPAPGKERELVAAISSSGGSTYYADSVKGRFTISRDNAKNTVYLQMNSLKPEDTSVYYCVTYRNWWYDYWGQGTQVTVSS
- polyreactivity (PSR sort gate): high polyreactivity

Sequence: QVQHVESGGGLVQAGGSLRLSCAASGSINSNAMGWYRQARGKERELVAAISGSGSTTYYADSVKGRFTISRDNAKNTVYLKMNSLKPEDTAVYYCARGVYGRGRTERYYWGQGTQVIVSS
- polyreactivity (PSR sort gate): high polyreactivity

Sequence: QVQLVESGGGVVQAGGTLRLSCAASGINFIDNTMGWYRQAPGKEREFVATISANSDGTYYADSVKRRFTISRDNAKKTVYLQMNSLKPEETAVYYWGQGTQVTVSS
- polyreactivity (PSR sort gate): low polyreactivity

Sequence: QVQLVESGGGLVQAGGSLRLSCAASGRIFKKNAMGWYRQAPGKERELVAAIRGSGDSTFYADSVKGRFTISRDNAKNTVYLQMNSLKPEDTAVYYCAAGDVPRRIYLVYVGYLLDYWGQGTQVTVSS
- polyreactivity (PSR sort gate): low polyreactivity

Sequence: QVQLVESRGRLVQAGGSLRLSCAASGYTFNHNAMGWYRPAPGKETELVAVITPRAGSTYYADSVKGRFTISRDNAKNTVYLQKNSLKPEDSAVYYCNADGFVRRTLRYDYWVQGTQVTVSS
- polyreactivity (PSR sort gate): high polyreactivity

Sequence: QVQLVESGGGLVQAGGSLRLSCAASGIILRRYAMGWYRQAPGKERELVARISYRGGRTNYADSVKGRFTISRDNAKNTVYLQMNSLKPEDTAVYYCAAVAWYYHEGTAYNYWGQGTQVTVSS
- polyreactivity (PSR sort gate): high polyreactivity

Sequence: QVQLQESGGGLVQAGGSQRLSCAASGNISVTGFMGCYRQAPGKERELVASIGIGGTTYYADSVKGRFSISRDNEKNTVYLQMNSLKPEDTAVYYCAARYLYYAYSYWGQGTQVTVSS
- polyreactivity (PSR sort gate): low polyreactivity

Sequence: QVQLVESGGGLVQAGGSLRLICAASGSTFTRYAMGWYRQAPGKERELVAAINSSGGRTYYADSVKGRFTISRDNAKNTVYLQMNSLKPEDTAVYYFAATRGRYREDEDYWGQGTQVTVSS
- polyreactivity (PSR sort gate): high polyreactivity

Sequence: QVQLVESGGGLVQAGGSLRLSCAASGFIFDLYAMGWYRQAPGKERELVAAITTSGGTTYYADSVKGRFTISRDNAKNTVYLQMNSLKPEDTAVYYCAARRYSWYYYWGQGTQVTVSS
- polyreactivity (PSR sort gate): high polyreactivity

Sequence: QVQLVESGGGLVQAGGSLRLSCAASGRTISHNAMGWYRQPPGKESELVAAISSGGGSTYYGDSVKGRFTISRDNAKNTVYVQMNSLKPEDTAVYYCAAPSYGRSRGFGLGINKYDYWGQGTQVTVSS
- polyreactivity (PSR sort gate): high polyreactivity

Sequence: QVQLVESGGGLVQAGGSLRLSSAASGGIFRYNAMGWYRQAPGKERELVAGISYRGGTTYYADSVKGRFTISRDNAKNTVYLQMNSLKPEDTAVYYCAAAASSPGGWFYYWGQVTQVTVSS
- polyreactivity (PSR sort gate): high polyreactivity

Sequence: QVHLVESGGGLVQAGGSLRLSCAASGNTHVKNAMGWYRQAPGKERELVAAISSSGGRTYYGDSVKGRFTISRDNAKNTVYLQMNSLKPDDTAVYYCAARYPSGYYYWGQGTQVTVSS
- polyreactivity (PSR sort gate): high polyreactivity

Sequence: QVQLVESGGGVVQAGGSLRLSCAASARTFYRNAMGWYRQAPGKERELVAAITGSGGSTYYADSVKGRFTISRDNAKNTVYLQMNSLKPEDTAVSYCAAGTRIYNSWIRFDYWGQGTQVTVSS
- polyreactivity (PSR sort gate): high polyreactivity

Sequence: QVQLVESGGGLVQAGGSLRLSCAASGIIFYDYAMGWYRQAPGKERELVATITRGGGTKYADSVKGRFTISRDNAKNTVYLQMNSLKQEDTAVYYCAADSHGDYEGDYWGQGTQVTVSS
- polyreactivity (PSR sort gate): low polyreactivity

Sequence: QVQLVESGRGLDQAGGSHRISCAGSARIFTIYAMGCYRQAPGKERELVAAISKSGGRTYYADSVKGRFTISRDNAKNTVYVQMNSLKPEDTAVYYCAARWRSWRYKYDYWGQGTQVTVSS
- polyreactivity (PSR sort gate): high polyreactivity

Sequence: QVQLVESGGGLVQAGGSLRLSCAASGITFKYYTMAWYRQAPGKERELVAAISRSGGSTYYADSVKGRFTISRDNAKNTVYLQMMSLKPEDTAVYYCAAERGAYRGVTFTYGYWGQGTQVTLSS
- polyreactivity (PSR sort gate): high polyreactivity

Sequence: QVQLVESGGGLVQAGGSLRLSCAASGLIFYRNAMGWYRQAPGKERELVAAIRFSTGSTYYADSVKGRFTISRDNAKKTVYLQMNSLKPEDTAVYYCAADRRYYWYNYWGQGTQVTVSS
- polyreactivity (PSR sort gate): high polyreactivity

Sequence: QVQLVESGGGLVQAGGSLRLSCAASGRTFRVYAMGWYRQAPGKERELVATITSSGGSTYYADSVKGRFTISRDNAKNTVYLQMNSLKPEDTAVYYCNVSVYYNYDSSYYYWGQGTQVTVSS
- polyreactivity (PSR sort gate): low polyreactivity

Sequence: QVQLVESGGGLVQAGGSLRLSCAASGSTFGGYAMGWSRQAPGKERELVARITRSGGRTYYADSVKGRFTISRDNAKNTVYLQMNSLKPEDTAVYYCNKQLLISRQIQYEYWGQGTQVTVSS
- polyreactivity (PSR sort gate): low polyreactivity

Sequence: QVQLVESGGGLVQAGGSLRLSCAASGRTFFPYAMGWYRQAPGKERELVATIRYRGGSTSYADSVKGRFTISRDNAKNTVYLQMNSLKPEDTAVYYCAARLQRTPRVYSSYFEYDYWGHGTQVTVSS
- polyreactivity (PSR sort gate): low polyreactivity

Sequence: QVQLVESGGGLVQAGGSLRLSCAASGIILYVNAMGWYRQAPGKEREFVAAISWGGGSTYYADSVKGRFTISRDNAKNTVYLQMNSLKPEDTAVYYCAAEFWSGYPTYTYDYWGQGTQVTVSS
- polyreactivity (PSR sort gate): low polyreactivity

Sequence: QVQLVESGGGLVQAGGSLRLSCAASVFTFPPYAMGWSRQAPGKERELVAAISSAGSTKYADSVKGRFTISRDNAKNTVYLQMNSLKPEDTAVYYCAARWARSYDYWGQGTQVTVSS
- polyreactivity (PSR sort gate): low polyreactivity

Sequence: HLQLVESGGVLVQAGGSLRLSCASSGSTFRSNVMGWYRQAPGKAREFVAAITSSSATTYYADSVKGRFTISRDNAKNTVYLLINSLKPEDTAVYYCAAGGRKAGPAGGQYYYWGQGTQVTVSS
- polyreactivity (PSR sort gate): low polyreactivity

Sequence: QVQLVESGVGLVQAGGSLRLSCAASGLIFGYYAMGRNRQAPGKERELVAAITRGGGRTYYADSVKGRFTISRDNAKNTVYLQMNSLKPEDTAVYYCNAVRRVSSAGEFDYWGQGTQVTVSS
- polyreactivity (PSR sort gate): high polyreactivity

Sequence: QVQLVESGGGLVQAGGSLRLSCAASGSTFGINTMGWYRQAPGKERELVASINRGGTTNYADSVKGRFTISRDNAKNTVYLQMNSLKPEDTAVYYCNARYYVTRLSRFRYGYWGQGTQVTVSS
- polyreactivity (PSR sort gate): high polyreactivity

Sequence: QVQLVDSGGGLVQAGGSLRLSCAASGSIFEGYVMGWYRQAPGKERELVAAITTGGGSTYYADSVKGRFTISRDNAKNTVDLPMNSLKPEDTAVYYCAKDYWFGYEYWGQGTQVTVSS
- polyreactivity (PSR sort gate): low polyreactivity

Sequence: QFQLVESGGGFVQAGGSLRLSCAASGRIFYRYAMGCYSQAPGKERELVAAITWRGGSTYYADSVKGRFTISRDNANNTVYLQMNSLKPEDTAVYYCAAAAYGVPWRSYLGVFKSHMDYWGQGTQVTVSS
- polyreactivity (PSR sort gate): high polyreactivity

Sequence: QVQLVESGGGLVQAGGSLRLSCAASGSTFDGYAMGWYRQAPGKERELVAAISASGGSTYYADSVKGRFTISRDNAKNTVYLQMNSLKPEDTAVYYCAAQVRYLCYRYDYWGQGSQVTVSS
- polyreactivity (PSR sort gate): high polyreactivity

Reference: the nanobody polyreactivity screen of Harvey et al. (2022)
